Experimental findings from patent US20170233490A1 (Hoffmann-La Roche, published 2017) are described below.

The target of assay [1] is T1, TtSlyDcys-Her3.
T1 chain: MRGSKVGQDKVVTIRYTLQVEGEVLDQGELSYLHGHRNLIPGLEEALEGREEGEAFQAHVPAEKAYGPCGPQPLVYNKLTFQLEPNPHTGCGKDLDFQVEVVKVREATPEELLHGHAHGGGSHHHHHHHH
Briefly: ELISA, coated antigen. As for the experimental part:
(§1) For the ELISA the screening an antigen down format was used. […] Hybridoma Supernatant was added to the plates and incubated for 1 h at room temperature. Bound antibody was detected with a HRP-labeled F(ab′)₂ goat anti-mouse Fcγ (Dianova) and ABTS (Roche) was used as a HRP-substrate.
(§2) As negative controls the scaffold proteins TtSlyDcas and TgSlyDΔIF were used.

Assay [2] concerns the target T2, TgSlyDΔIF.
T2 construct: scaffold without hairpin insert, negative control
T2 chain: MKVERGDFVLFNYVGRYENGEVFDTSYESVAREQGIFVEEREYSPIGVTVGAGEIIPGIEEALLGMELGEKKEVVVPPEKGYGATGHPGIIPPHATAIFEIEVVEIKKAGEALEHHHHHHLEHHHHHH
Briefly: ELISA, coated antigen. As for the experimental part: as §1, §2
In general terms: ELISA stands for enzyme-linked immunosorbent assay.

Assay [3] addresses T3, TtSlyDcas.
T3 construct: scaffold without hairpin insert, negative control
T3 chain: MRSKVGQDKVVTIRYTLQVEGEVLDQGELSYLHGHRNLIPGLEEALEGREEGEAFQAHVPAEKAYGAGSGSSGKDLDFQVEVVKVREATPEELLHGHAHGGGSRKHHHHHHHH
Kind of assay: ELISA, coated antigen. How it is done:
as §1, §2

The target in assay [4] is T4, human HER3 Extracellular Domain (ECD) (human, UniProt P21860 20-643).
T4 construct: human recombinant, 68 kDa; 'closed' conformation without ligand; also called Her3 ECD; Her-3 ECD
Briefly: ELISA, coated antigen. As for the experimental part: as §1, §2

For assay [5], the target named is T5, human HER4 Extracellular Domain (ECD) (human, UniProt Q15303 26-651).
T5 construct: also called Her4 ECD; HER4-ECD
T5 sequence: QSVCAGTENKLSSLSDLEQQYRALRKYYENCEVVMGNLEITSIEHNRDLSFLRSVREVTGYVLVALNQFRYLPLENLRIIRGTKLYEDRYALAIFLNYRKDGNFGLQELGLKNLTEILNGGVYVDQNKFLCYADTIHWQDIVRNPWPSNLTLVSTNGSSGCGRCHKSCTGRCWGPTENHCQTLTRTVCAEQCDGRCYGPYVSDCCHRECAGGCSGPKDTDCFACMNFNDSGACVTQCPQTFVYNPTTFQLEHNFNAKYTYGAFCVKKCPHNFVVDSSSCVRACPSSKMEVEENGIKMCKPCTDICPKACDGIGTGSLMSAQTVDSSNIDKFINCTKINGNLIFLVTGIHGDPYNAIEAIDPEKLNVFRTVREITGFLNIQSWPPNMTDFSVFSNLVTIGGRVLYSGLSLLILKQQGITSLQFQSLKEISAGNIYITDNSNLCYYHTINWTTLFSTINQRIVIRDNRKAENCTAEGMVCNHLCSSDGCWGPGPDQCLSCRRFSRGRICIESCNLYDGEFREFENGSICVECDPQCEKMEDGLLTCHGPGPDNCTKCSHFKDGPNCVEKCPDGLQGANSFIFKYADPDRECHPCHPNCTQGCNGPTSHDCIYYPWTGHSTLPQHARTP
Kind of assay: ELISA, coated antigen. As for the experimental part: as §1, §2

For assay [6], the target named is T6, TgSlyDcys-Her3.
T6 chain: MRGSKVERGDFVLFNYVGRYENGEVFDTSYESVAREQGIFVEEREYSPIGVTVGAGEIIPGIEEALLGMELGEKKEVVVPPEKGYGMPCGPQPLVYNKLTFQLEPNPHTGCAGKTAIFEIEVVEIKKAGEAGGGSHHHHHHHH
Briefly: ELISA, coated antigen. How it is done: as §1, §2

The target in assay [7] is T7, human HER2 Extracellular Domain (ECD) (human, UniProt P04626 23-652).
T7 construct: human recombinant, 69.6 kDa; also called Her2 ECD; HER2_ECD
Kind of assay: ELISA, coated antigen. As for the experimental part:
as §1, §2

Assay [8] addresses T8, TgSlyDser-Her3.
T8 chain: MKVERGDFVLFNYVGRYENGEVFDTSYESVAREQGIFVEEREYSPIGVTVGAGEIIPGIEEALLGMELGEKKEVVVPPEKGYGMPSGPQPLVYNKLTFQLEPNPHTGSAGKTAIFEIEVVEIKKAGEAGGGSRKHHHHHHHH
Briefly: ELISA, coated antigen. As for the experimental part: as §1, §2

For assay [9], the target named is T9, TtSlyDcas-Her3.
T9 chain: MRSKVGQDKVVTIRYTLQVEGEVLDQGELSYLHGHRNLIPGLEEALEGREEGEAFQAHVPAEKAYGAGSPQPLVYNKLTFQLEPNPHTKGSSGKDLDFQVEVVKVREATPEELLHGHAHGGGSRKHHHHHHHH
Kind of assay: ELISA, coated antigen. As for the experimental part: as §1, §2

Assay [10] concerns the target T10, human HER1 Extracellular Domain (ECD) (human, UniProt P00533 25-645).
T10 construct: also called Her1 ECD; HER1-ECD
Kind of assay: ELISA, coated antigen. How it is done: as §1, §2

Assay [11] deals with T11, human HER1 (full length, on cells) (human, UniProt P00533 25-1210).
T11 construct: HEK293 cells transfected with full length HER1, fixed and embedded (IHC); also called EGFR
Briefly: IHC (Ventana Benchmark XT) on formalin-fixed, paraffin-embedded HEK293 cells transiently transfected with full length HER1. How it is done:
(§3) All selected clones were tested for reactivity and specificity in IHC. […] After an additional fixation in formalin overnight the Agarose blocks were embedded in paraffin. Untransfected HEK293 cells were used as negative controls and treated accordingly to the transfected cells. After paraffin embedding 3 μm thin sections were prepared using a microtome. The sections were mounted on glass microscopy slides and dried for 2 h. All further steps of the immunohistochemical staining procedure were carried out using a Ventana Benchmark XT. The slides were dewaxed and antigen retrieval was performed by applying heat for 1 hour. For antigen retrieval the Ventana buffer CC1 was used. The antibodies were used at a concentration of 1 μg/ml. For the detection of bound antibody the Ventana UltraView detection kit was used.

The target in assay [12] is T12, human HER2 (full length, on cells) (human, UniProt P04626 23-1255).
T12 construct: HEK293 cells transfected with full length HER2 (IHC); MCF-7 cells (co-immunoprecipitation)
Kind of assay: IHC (Ventana Benchmark XT) on formalin-fixed, paraffin-embedded HEK293 cells transiently transfected with full length HER2. How it is done: as §3

In assay [13] the target is T2, TgSlyDΔIF. Briefly: ELISA, coated antigen 0.5 µg/ml, hybridoma supernatant. As for the experimental part:
as §1

In assay [14] the target is T3, TtSlyDcas. The description is as above. How it is done:
as §1

Assay [15] addresses T7, human HER2 Extracellular Domain (ECD). Briefly: ELISA, coated antigen, hybridoma supernatant. How it is done:
as §1

Assay [16] concerns the target T10, human HER1 Extracellular Domain (ECD). Kind of assay: ELISA, coated antigen, hybridoma supernatant. How it is done: as §1
Assay [17] has as its target T13, HER3 ECD-HRG complex (human, UniProt P21860 20-643).
T13 construct: HER3 ECD preincubated with a 3- to 6-fold molar excess of Heregulin ('open' conformation); biotinylated Her3-ECD in the ribosome display; also called HER3-ECD/HRG1β
Briefly: SPR Biacore 3000, antibody captured via anti-human Fc, 25 C. As for the experimental part:
(§4) A CM5 series sensor was mounted into the system and was normalized in HBS-ET buffer (10 mM HEPES pH 7.4, 150 mM NaCl, 3 mM EDTA, 0.005% w/v Tween 20) according to the manufacturer's instructions. The sample buffer was the system buffer supplemented with 1 mg/ml CMD (Carboxymethyldextran, Sigma #86524). The system operated at 25° C. 10000 RU monoclonal murine anti-human Fc antibody (MAK<h-Fc> M-R10Z8 E9, Roche Diagnostics GmbH, Penzberg, Germany) were immobilized using EDC/NHS chemistry on all four flow cells. The sensor was deactivated using 1M ethanolamine.
(In general: SPR reads the build-up and loss of mass on a sensor chip optically.)

Assay [18] addresses T13, HER3 ECD-HRG complex. Briefly: SPR Biacore 3000, sequential injection: HER2-ECD first, then HER3-ECD/HRG1β, 270 nM each. As for the experimental part: as §4
(§5) The association and dissociation rates were monitored for 10 minutes and 8 minutes, respectively.

Assay [19] addresses T13, HER3 ECD-HRG complex. Kind of assay: SPR Biacore 3000, sequential injection: HER3-ECD/HRG1β first, then HER2-ECD, 270 nM each. As for the experimental part:
as §4, §5

B1: M-15-02 (antibody, V domains shown)
VH: QVQLQQSGAELAKPGASVKMSCKTSGYTLTDYWIHWVKQRPGQGLEWIGYINPYTGYTESNQKFKDKATLTADKSSNTAYIQLSSLTSEDSAVYYCARPYYYGDYWGQGTTLTVSS
VL: QIVLTQSPAIMSASPGERVTITCSASSSVSYMHWFQQKPGTSPKLLIYSTSNLASGVPARFSGSGSGTSYSLTISRMEAEDAATYYCQQRSSYPFTFGSGTKLEIK
notes: murine hybridoma clone
B1: the ELISA signal in assay [1] is 1.52; in [2], 0.04; in [3], 0.04; in assay [4], 3.15; in assay [5], 3.19; in [6], 1.78. Further, the ELISA signal in assay [7] was found to be 0.025; in assay [8] it was 1.98; in assay [9], 1.76; in assay [10] it was 0.024. Further, the binding result in [11] is “no binding (tested: 1 µg/ml)”; in assay [12], “no binding (tested: 1 µg/ml)”; in [13] it was “no binding”; in [14] it was “no binding”; in assay [15], “no binding”; in [16], “no binding”.

B2: M-15-04 (antibody, V domains shown)
VH: B1 VH
VL: B1 VL
notes: murine hybridoma clone
In the case of B2, the ELISA signal in [1] came to 1.46; in assay [2] it was 0.033; in assay [3], 0.04; in [4], 3.17; in [5] it was 3.19; in assay [6], 1.5. Further, the ELISA signal in assay [7] is 0.064; in [8], 1.83; in assay [9], 1.85; in [10], 0.067. The binding result was “no binding (tested: 1 µg/ml)” in [11]; “no binding (tested: 1 µg/ml)” in [12]; “no binding” in [13]; “no binding” in assay [14]; “no binding” in [15]; “no binding” in assay [16].

B3: DIB-MoAb (monovalent antibody based on M-05-74) (antibody, V domains shown)
VH: B1 VH
VL: B1 VL
notes: also called DIB-74 in the monovalent MoAb format; monovalent M-05-74
By Kd is commonly meant the equilibrium constant for the complex coming apart. One may read the koff as the first-order rate constant of dissociation. Low readings indicate slow dissociation, high ones fast dissociation. In general, kon refers to the second-order rate constant of association. A low value points to slow association. Turning to B3, in assay [17], the Kd was found to be 2.1 nM, the “MR (Molar Ratio)” value stood at 0.6, the koff turned out to be 0.00023 s⁻¹ and the kon is 110000 M⁻¹ s⁻¹. In assay [17], this molecule yielded a t1/2-diss of 51 min.

B4: bispecific HER3/HER2 antibody DIBxPERT (bispecific antibody, human IgG1, kappa)
heavy 1: not shown
light 1: DIQMTQSPSSLSASVGDRVTITCKASQDVSIGVAWYQQKPGKAPKLLIYSASYRYTGVPSRFSGSGSGTDFTLTISSLQPEDFATYYCQQYYIYPYTFGQGTKVEIKSSASTKGPSVFPLAPSSKSTSGGTAALGCLVKDYFPEPVTVSWNSGALTSGVHTFPAVLQSSGLYSLSSVVTVPSSSLGTQTYICNVNHKPSNTKVDKKVEPKSC
heavy 2: not shown
light 2: QIVLTQSPAIMSASPGERVTITCSASSSVSYMHWFQQKPGTSPKLLIYSTSNLASGVPARFSGSGSGTSYSLTISRMEAEDAATYYCQQRSSYPFTFGSGTKLEIKRTVAAPSVFIFPPSDEQLKSGTASVVCLLNNFYPREAKVQWKVDNALQSGNSQESVTEQDSKDSTYSLSSTLTLSKADYEKHKVYACEVTHQGLSSPVTKSFNRGEC
notes: also called DIBxPERT CrossMab
On to B4, for which the “MR (molar ratio), second injection” value in assay [18] stood at 0.7. Moreover, the “MR (molar ratio), first injection” value in assay [19] is 0.8. In addition, in assay [17], the dissociation constant Kd is 3.9 nM, the “MR (Molar Ratio)” value stood at 0.5, the koff is 0.00033 s⁻¹ and the on-rate constant (kon) is 84000 M⁻¹ s⁻¹. In assay [17], this molecule returned a t1/2-diss of 35 min.
